{
  "source": "the supplement of paper PMC11316812",
  "key": {"hTERT-HMEC": {"system": "hTERT-HMEC", "assay": "percentage of EdU-negative (G0-arrested) nuclei per well, 72 h; higher = more G0 arrest", "conditions": "reference: sequence is the full UniProt precursor, the tested protein was the secreted form or ectodomain"}, "MCF7": {"system": "MCF7", "assay": "percentage of EdU-negative (G0-arrested) nuclei per well, 72 h; higher = more G0 arrest", "conditions": "reference: sequence is the full UniProt precursor, the tested protein was the secreted form or ectodomain"}, "[1]": {"conditions": "protein concentration 0.0225 µM"}, "[2]": {"conditions": "protein concentration 0.0171429 µM"}, "[3]": {"conditions": "protein concentration 0.171429 µM"}, "[4]": {"conditions": "protein concentration 0.020715 µM"}, "[5]": {"conditions": "protein concentration 0.20715 µM"}, "[6]": {"conditions": "protein concentration 0.0115 µM"}, "[7]": {"conditions": "protein concentration 0.03125 µM"}, "[8]": {"conditions": "protein concentration 0.3125 µM"}},
  "note": "± gives the standard deviation of the averaged measurements.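 Note: secreted proteins added to cultured cells, EdU pulse at the end, nuclei found by Hoechst imaging, EdU status from nuclear versus surrounding ring intensity ratio, PBS as neutral control.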",
  "data": [
    {"sequence": "MLLAWVQAFLVSNMLLAEAYGSGGCFWDNGHLYREDQTSPAPGLRCLNWLDAQSGLASAPVSGAGNHSYCRNPDEDPRGPWCYVSGEAGVPEKRPCEDLRCPETTSQALPAFTTEIQEASEGPGADEVQVFAPANALPARSEAAAVQPVIGISQRVRMNSKEKKDLGTLGYVLGITMMVIIIAIGAGIILGYSYKRGKDLKEQHDQKVCEREMQRITLPLSAFTNPTCEIVDEKTVVVHTSQTPVDPQEGTTPLMGQAGTPGA [Q96FE7]", "values": [
      {"measurement": "percentage of EdU-negative", "setting": "hTERT-HMEC; [1]", "value": "4.79 ± 0.62", "unit": "%"},
      {"measurement": "percentage of EdU-negative", "setting": "hTERT-HMEC; protein concentration 0.225 µM", "value": "5.22 ± 0.39", "unit": "%"},
      {"measurement": "percentage of EdU-negative", "setting": "MCF7; [1]", "value": "24.9 ± 2", "unit": "%"},
      {"measurement": "percentage of EdU-negative", "setting": "MCF7; protein concentration 0.225 µM", "value": "25.1 ± 0.47", "unit": "%"}
    ]},
    {"sequence": "MLLEPGRGCCALAILLAIVDIQSGGCINITSSASQEGTRLNLICTVWHKKEEAEGFVVFLCKDRSGDCSPETSLKQLRLKRDPGIDGVGEISSQLMFTISQVTPLHSGTYQCCARSQKSGIRLQGHFFSILFTETGNYTVTGLKQRQHLEFSHNEGTLSSGFLQEKVWVMLVTSLVALQAL", "values": [
      {"measurement": "percentage of EdU-negative", "setting": "hTERT-HMEC; [1]", "value": "4.71 ± 0.094", "unit": "%"},
      {"measurement": "percentage of EdU-negative", "setting": "hTERT-HMEC; protein concentration 0.225 µM", "value": "5.62 ± 0.37", "unit": "%"},
      {"measurement": "percentage of EdU-negative", "setting": "MCF7; [1]", "value": "24.09 ± 0.069", "unit": "%"},
      {"measurement": "percentage of EdU-negative", "setting": "MCF7; protein concentration 0.225 µM", "value": "28.4 ± 2.2", "unit": "%"}
    ]},
    {"sequence": "MLLFLLSALVLLTQPLGYLEAEMKTYSHRTMPSACTLVMCSSVESGLPGRDGRDGREGPRGEKGDPGLPGAAGQAGMPGQAGPVGPKGDNGSVGEPGPKGDTGPSGPPGPPGVPGPAGREGPLGKQGNIGPQGKPGPKGEAGPKGEVGAPGMQGSAGARGLAGPKGERGVPGERGVPGNTGAAGSAGAMGPQGSPGARGPPGLKGDKGIPGDKGAKGESGLPDVASLRQQVEALQGQVQHLQAAFSQYKKVELFPNGQSVGEKIFKTAGFVKPFTEAQLLCTQAGGQLASPRSAAENAALQQLVVAKNEAAFLSMTDSKTEGKFTYPTGESLVYSNWAPGEPNDDGGSEDCVEIFTNGKWNDRACGEKRLVVCEF", "values": [
      {"measurement": "percentage of EdU-negative", "setting": "hTERT-HMEC; [2]", "value": "4.51 ± 0.51", "unit": "%"},
      {"measurement": "percentage of EdU-negative", "setting": "hTERT-HMEC; [3]", "value": "5.78 ± 0.29", "unit": "%"},
      {"measurement": "percentage of EdU-negative", "setting": "MCF7; [2]", "value": "23.4 ± 1.8", "unit": "%"},
      {"measurement": "percentage of EdU-negative", "setting": "MCF7; [3]", "value": "25.14 ± 0.067", "unit": "%"}
    ]},
    {"sequence": "MLLKTVLLLGHVAQVLMLDNGLLQTPPMGWLAWERFRCNINCDEDPKNCISEQLFMEMADRMAQDGWRDMGYTYLNIDDCWIGGRDASGRLMPDPKRFPHGIPFLADYVHSLGLKLGIYADMGNFTCMGYPGTTLDKVVQDAQTFAEWKVDMLKLDGCFSTPEERAQGYPKMAAALNATGRPIAFSCSWPAYEGGLPPRVNYSLLADICNLWRNYDDIQDSWWSVLSILNWFVEHQDILQPVAGPGHWNDPDMLLIGNFGLSLEQSRAQMALWTVLAAPLLMSTDLRTISAQNMDILQNPLMIKINQDPLGIQGRRIHKEKSLIEVYMRPLSNKASALVFFSCRTDMPYRYHSSLGQLNFTGSVIYEAQDVYSGDIISGLRDETNFTVIINPSGVVMWYLYPIKNLEMSQQ", "values": [
      {"measurement": "percentage of EdU-negative", "setting": "hTERT-HMEC; [4]", "value": "5.62 ± 0.13", "unit": "%"},
      {"measurement": "percentage of EdU-negative", "setting": "hTERT-HMEC; [5]", "value": "6.091 ± 0.044", "unit": "%"},
      {"measurement": "percentage of EdU-negative", "setting": "MCF7; [4]", "value": "27.8 ± 0.95", "unit": "%"},
      {"measurement": "percentage of EdU-negative", "setting": "MCF7; [5]", "value": "26.5 ± 1.4", "unit": "%"}
    ]},
    {"sequence": "MLLLFLLFEGLCCPGENTAAPQALQSYHLAAEEQLSFRMLQTSSFANHSWAHSEGSGWLGDLQTHGWDTVLGTIRFLKPWSHGNFSKQELKNLQSLFQLYFHSFIQIVQASAGQFQLEYPFEIQILAGCRMNAPQIFLNMAYQGSDFLSFQGISWEPSPGAGIRAQNICKVLNRYLDIKEILQSLLGHTCPRFLAGLMEAGESELKRKVKPEAWLSCGPSPGPGRLQLVCHVSGFYPKPVWVMWMRGEQEQRGTQRGDVLPNADETWYLRATLDVAAGEAAGLSCRVKHSSLGGHDLIIHWGGYSIFLILICLTVIVTLVILVVVDSRLKKQSSNKNILSPHTPSPVFLMGANTQDTKNSRHQFCLAQVSWIKNRVLKKWKTRLNQLW", "values": [
      {"measurement": "percentage of EdU-negative", "setting": "hTERT-HMEC; [6]", "value": "4.889 ± 0.0055", "unit": "%"},
      {"measurement": "percentage of EdU-negative", "setting": "hTERT-HMEC; protein concentration 0.115 µM", "value": "8.22 ± 0.88", "unit": "%"},
      {"measurement": "percentage of EdU-negative", "setting": "MCF7; [6]", "value": "28.7 ± 2.1", "unit": "%"},
      {"measurement": "percentage of EdU-negative", "setting": "MCF7; protein concentration 0.115 µM", "value": "26 ± 1.3", "unit": "%"}
    ]},
    {"sequence": "MLLLFSVILISWVSTVGGEGTLCDFPKIHHGFLYDEEDYNPFSQVPTGEVFYYSCEYNFVSPSKSFWTRITCTEEGWSPTPKCLRMCSFPFVKNGHSESSGLIHLEGDTVQIICNTGYSLQNNEKNISCVERGWSTPPICSFTKGECHVPILEANVDAQPKKESYKVGDVLKFSCRKNLIRVGSDSVQCYQFGWSPNFPTCKGQVRSCGPPPQLSNGEVKEIRKEEYGHNEVVEYDCNPNFIINGPKKIQCVDGEWTTLPTCVEQVKTCGYIPELEYGYVQPSVPPYQHGVSVEVNCRNEYAMIGNNMITCINGIWTELPMCVATHQLKRCKIAGVNIKTLLKLSGKEFNHNSRIRYRCSDIFRYRHSVCINGKWNPEVDCTEKREQFCPPPPQIPNAQNMTTTVNYQDGEKVAVLCKENYLLPEAKEIVCKDGRWQSLPRCVESTAYCGPPPSINNGDTTSFPLSVYPPGSTVTYRCQSFYKLQGSVTVTCRNKQWSEPPRCLDPCVVSEENMNKNNIQLKWRNDGKLYAKTGDAVEFQCKFPHKAMISSPPFRAICQEGKFEYPICE [Q9BXR6]", "values": [
      {"measurement": "percentage of EdU-negative", "setting": "hTERT-HMEC; protein concentration 0.024 µM", "value": "4.32 ± 0.27", "unit": "%"},
      {"measurement": "percentage of EdU-negative", "setting": "hTERT-HMEC; protein concentration 0.24 µM", "value": "5.71 ± 1.3", "unit": "%"},
      {"measurement": "percentage of EdU-negative", "setting": "MCF7; protein concentration 0.024 µM", "value": "25.7 ± 0.37", "unit": "%"},
      {"measurement": "percentage of EdU-negative", "setting": "MCF7; protein concentration 0.24 µM", "value": "30.6 ± 1.7", "unit": "%"}
    ]},
    {"sequence": "MLLLGAVLLLLALPGHDQETTTQGPGVLLPLPKGACTGWMAGIPGHPGHNGAPGRDGRDGTPGEKGEKGDPGLIGPKGDIGETGVPGAEGPRGFPGIQGRKGEPGEGAYVYRSAFSVGLETYVTIPNMPIRFTKIFYNQQNHYDGSTGKFHCNIPGLYYFAYHITVYMKDVKVSLFKKDKAMLFTYDQYQENNVDQASGSVLLHLEVGDQVWLQVYGEGERNGLYADNDNDSTFTGFLLYHDTN", "values": [
      {"measurement": "percentage of EdU-negative", "setting": "hTERT-HMEC; [7]", "value": "5.07 ± 0.4", "unit": "%"},
      {"measurement": "percentage of EdU-negative", "setting": "hTERT-HMEC; [8]", "value": "5.02 ± 0.22", "unit": "%"},
      {"measurement": "percentage of EdU-negative", "setting": "MCF7; [7]", "value": "26.2 ± 2.3", "unit": "%"},
      {"measurement": "percentage of EdU-negative", "setting": "MCF7; [8]", "value": "25.6 ± 1.1", "unit": "%"}
    ]}
  ]
}
